{"source": "patent US11472875", "proteins": {"B1": {"name": "human matriptase (protein)", "chain": "GSDEKDCDCGLRSFTRQARVVGGTDADEGEWPWQVSLHALGQGHICGASLISPNWLVSAAHCYIDDRGFRYSDPTQWTAFLGLHDQSQRSAPGVQERRLKRIISHPFFNDFTFDYDIALLELEKPAEYSSMVRPICLPDASHVFPAGKAIWVTGWGHTQYGGTGALILQKGEIRVINQTTCENLLPQQITPRMMCVGFLSGGVDSCQGDSGGPLSSVEADGRIFQAGVVSWGDGCAQRNKPGVYTRLPLFRDWIKENTGV"}}, "key": {"CM1-CM2 substrate 2003": {"target": "T1, CM1-CM2 substrate 2003", "T1 chain": "ISSGLLSGRSANPRG"}, "CM1-CM2 substrate 2005": {"target": "T2, CM1-CM2 substrate 2005", "T2 chain": "AVGLLAPPSGRSANPRG"}, "[1]": {"target": "anti-EGFR activatable antibodies comprising substrates 2001, 2006-2010 and 2012"}}, "data": [{"protein": "B1", "values": [{"measurement": "cleavage kinetics, fold increase as compared to substrate 2001", "setting": "CM1-CM2 substrate 2003", "value": "approximately a 50-fold increase"}, {"measurement": "cleavage kinetics, fold increase as compared to substrate 1004/LP′/0001", "setting": "CM1-CM2 substrate 2005", "value": "approximately a 50-fold increase"}, {"measurement": "kcat/Km", "setting": "[1]", "value": "a range of kcat/Km values ranging from 6E+02 to 2E+04"}]}]}
